Measured values reported in patent publication US8835136B2, “Engineered amine dehydrogenases and methods of use thereof” (Georgia Tech Research Corporation, priority 2012, dated 2014).
“And” between values parts separate entries of the source, which are not always exact repeats. Equal entries are not always repeated.

Tests used:
[1] = C1-AmDH amination at 60° C. in 4 M ammonium formate buffer; type: biochemical
Method: (§1) All ketone substrates for the amination direction were measured at 20 mM and dissolved at 60° C. in 4 M ammonium formate buffer. Enzyme specificity was measured at 60° C. for 5 min. with NADH as the cofactor at 340 nm.
(§2) The values for acetophenone, pFPA; NADH and NH3 were determined and are summarized in Table XX, all measured at 60° C.

[2] = as above; type: biochemical; details: 20 mM
Method: as §1

C1-AmDH kinetic values = type: biochemical; details: 60° C.
Method: as §2

[3] = C1-AmDH amine activity measured photometrically; type: biochemical
Method: Activities were also measured photometrically with 100 mM (+/−) methylhenzylamine (0.58 U/mg) as well as 100 mM (R)-methylbenzylamine. (0.98 U/mg), 50 mM (R,S)-adamanylethlamine (0.04 U/mg) and determined the enantioselectivity for this enzyme to be (R).

[4] = Temperature vs activity profile for C1-AmDH; type: biochemical
Method: The temperature activity profile was determined over a wide range until the limits of the instrument were reached. […] In contrast it is barely active between 20-30° C., so all measurements for activity were determined routinely at 60° C. Product conversions were done at 40° C. and 50° C., due to the temperature limits for regeneration enzyme, FDH. Temperature activity profiles were determined for pFPA and acetophenone (FIGS. 22A and 22B).

[5] = T50 after 30 min (T50^30) of C1-AmDH; type: physicochemical
Method: The T50 (after 30 min—T50^30) was also determined for the C1-AmDH. The T50^30 value was determined to be dependent on the buffer, in PBS, the enzyme was staple for 30 min at 50 C, at 60 C an beyond the enzyme deactivated within the timescale of the experiment. In the presence of 4M ammonium formate buffer we found the T50^30 value was determined to be at 70 C.

[6] = Substrate conversion using C1-AmDH and cb-FDH, chiral GC; type: biochemical
Method: Product formation was characterized for two substrates. The test assay utilized the C1-AmDH in 24 h conversion at 40° C. with cofactor regeneration in a biphasic solvent system with heptane as the organic layer and 5 M ammonium formate as the aqueous layer. Conversions were also carried out at 50° C., which is the upper limit for the cofactor regeneration enzyme FDH.
This is not a quantitative evaluation, since amines are more water soluble than their ketone counterparts and only the organic layer was used for chiral gas chromatography (GC). The peaks were compared to the corresponding standard amines and both determined to be R-specific (FIGS. 24A and 24B).

[7] = Reductive amination, spectrophotometric assay at 340 nm; type: biochemical; details: 500 mM NH4Cl/NH4OH pH 9.6, 200 μM NADH, 25° C.
Method: (§3) Activity of purified proteins was measured using a spectrophotometric assay at 340 nm, corresponding to the cofactor nicotinamide adenine dinucleotide (NADH, ε340=6220 M^−1 cm^−1) (Dawson, et al., Clarendon Press, (1989). For reductive amination, reactions took place in 500 mM NH4Cl/NH4OH at pH 9.6, with 200 μM NADH and 20 mM of the ketone substrate, unless otherwise specified. For oxidative deamination, reactions took place in 0.1 M NaHCO3/Na2CO3 buffer at pH 10.0, with 1 mM NAD+ with 10 mM of the amine substrate of interest. All reactions were performed at 25° C. unless otherwise specified. Enzyme was added in 10 μL aliquots in dilute concentrations. Enzyme concentrations varied upon activity levels with the substrate present, but were dilute enough to ensure linear conversion kinetics over the analytical time period (10 min to 30 min). Specific activities were then calculated from the stoichiometric conversion of cofactor as determine by the change in absorbance at 340 nm over time.

[8] = Oxidative deamination, spectrophotometric assay at 340 nm; type: biochemical; details: 0.1M Glycine pH 10.0, 1 mM NAD+, 25° C.
Method: as §3, with “For oxidative deamination, reactions took place in 0.1 M NaHCO3/Na2CO3 buffer at pH 10.0, with 1 mM NAD+ with 10 mM of the amine substrate of interest.” left out

[9] = Amination of phenylpyruvate; type: biochemical; details: 500 mM NH4Cl/NH4OH pH 9.6, 200 μM NADH, 5 mM phenylpyruvate, 25° C.
Method: (§4) The wild-type PheDH from B. badius was characterized to ensure proper expression and folding prior to mutation. […] KM values were determined for the substrates when possible, and corresponded well to those values found in literature (110). Additionally, the K1 value of ammonia was determined to be 5.0 M. The KM of phenylpyruvate could not be determined due to its high absorbance at the analytical wavelength. The wild-type enzyme was determined to be properly folded and active.

Deamination of L-Phe = type: biochemical; details: 0.1 M Glycine pH 10.0, 1 mM NAD+, 20 mM L-Phe, 25° C.
Method: as §4

[10] = Kinetic parameters for ammonia (PheDH / PheDH-AmDH); type: biochemical; details: amination of phenylpyruvate; read-out: KM, NH3
Method: as §4
Kinetic parameters, kcat and KM, were determined for the enzyme and each of the reductive amination substrates; respectively. […] The kcat value for this AmDH enzyme with all three substrates saturated in aqueous NH4Cl/NH4OH buffer at pH 9.6 was 6.85 s^−1 at 25° C. This represents a near 15-fold enhancement above the maximum observed kcat of 0.46 s^−1 of the previously developed LeuDH-AmDH.

B1: C1-AmDH: chimeric AmDH: F-AmDH substrate binding domain with L-AmDH NAD-binding domain, SEQ ID NO:20 (protein)
chain: SLVEKTSIIKDFTLFEKMSEHEQVVFCNDPATGLRAIIAIHDTTLGPALGGCRMQPYNSVEEALEDALRLSKGMTYSCAASDVDFGGGKAVIIGDPQKDKSPELFRAFGQFVDSLGGRFYTGTDMGTNMEDFIHAMKETNCIVGVPEAYGSSGNPSPATAYGVYRGMKAAAKEAFGSDSLEGKVVAVQGVGNVAYHLCRHLHEEGAKLIVTDINKEAVARAVEEFGAKAVDPNDIYGVECDIFAPCALGGIINDQTIPQLKAKVIAGSALNQLKEPRHGDMIHEMGIVYAPDYVINAGGCINVADELYGYNRERAMKKIEQIYDNIEKVFAIAKRDNIPTYVAADRMAEERIETMRKARSQFLQNGHHILSRRRAR
With B1 the “kcat, Acetophenone” value [1] was 0.24 s⁻¹, the “kcat, pFPA” value [1] was 1.24 s^−1 and the “Acetophenone, U/mg” value ([1]; 20 mM, 4 M ammonium formate) was 0.3 U/mg and 0.3019 U/mg. For the same molecule, the “Acetophenone, U/ml” value ([1]; 20 mM, 4 M ammonium formate) was 1.63 U/ml, the “pFPA, U/mg” value ([1]; 20 mM, 4 M ammonium formate) was 1.7 U/mg and 1.725 U/mg and the “pFPA, U/ml” value ([1]; 20 mM, 4 M ammonium formate) was 13.8 U/ml. For the same molecule, the Km ([1]; read-out: KM, Acetophenone) was 5.2 mM, the Km ([1]; read-out: KM, pFPA) was 1.1 mM and the “1,3-phenylbutanedione, U/mg” value [2] was 0.06 U/mg. The “1,3-phenylbutanedione, U/ml” value [2] was 0.3 U/ml, the “3-methyl-1-phenylbutanone, U/mg” value [2] was 0.03 U/mg and the “3-methyl-1-phenylbutanone, U/ml” value [2] was 0.16 U/ml. For the same molecule, the “3-oxo-phenylbutyricacid ethylester, U/mg” value [2] was 0 U/mg, the “3-oxo-phenylbutyricacid ethylester, U/ml” value [2] was 0 U/ml and the “Adamantylmethylketone, U/mg” value [2] was 0.07 U/mg. For the same molecule, the “Adamantylmethylketone, U/ml” value [2] was 0 U/ml, the “Benzophenone, U/mg” value [2] was 0 U/mg and the “Benzophenone, U/ml” value [2] was 0 U/ml. For the same molecule, the “a-tetralone, U/mg” value [2] was 0.1 U/mg and 0.1074 U/mg, the “a-tetralone, U/ml” value [2] was 0.58 U/ml and the “b-tetralone, U/mg” value [2] was 0 U/mg. The “b-tetralone, U/ml” value [2] was 0 U/ml, the “dibenzylketone, U/ml” value [2] was 1.39 U/ml and the “pinacolone, U/mg” value [2] was 0.1333 U/mg. The “pinacolone, U/ml” value [2] was 0.72 U/ml, the “kcat, NADH” value (C1-AmDH kinetic values) was 0.92 s⁻¹ and the “kcat, NH3” value (C1-AmDH kinetic values) was 1.09 s⁻¹. For the same molecule, the Km (C1-AmDH kinetic values; read-out: KM, NADH) was 0.04 mM, the enantioselectivity [3] was “(R)” and the “activity, (R,S)-adamanylethlamine” value ([3]; 50 mM) was 0.04 U/mg. For the same molecule, the “activity, (+/−) methylhenzylamine” value ([3]; 100 mM) was 0.58 U/mg, the “activity, (R)-methylbenzylamine” value ([3]; 100 mM) was 0.98 U/mg and the temperature activity profile [4] was “did not show any decline of activity up to 80 °C”. For the same molecule, the “T50^30 value” ([5]; 4M ammonium formate buffer, 30 min) was 70 C, the “temperature at which stable for 30 min” value ([5]; in PBS) was 50 C and the “product formation from methylcyclohexanone” value ([6]; 24 h, 40° C., heptane / 5 M ammonium formate) was “no product”. For the same molecule, the “enantiospecificity of product amines” value ([6]; methylbenzylamine and p-fluorophenylproplyamin, chiral GC, organic layer) was “R-specific”.

B2: Wild Type: PheDH from Bacillus badius, SEQ ID NO:1 (protein, listed as Bacillus badius)
chain: SLVEKTSIIKDFTLFEKMSEHEQVVFCNDPATGLRAIIAIHDTTLGPALGGCRMQPYNSVEEALEDALRLSKGMTYKCAASDVDFGGGKAVIIGDPQKDKSPELFRAFGQFVDSLGGRFYTGTDMGTNMEDFIHAMKETNCIVGVPEAYGGGGDSSIPTAMGVLYGIKATNKMLFGKDDLGGVTYAIQGLGKVGYKVAEGLLEEGAHLFVTDINEQTLEAIQEKAKTTSGSVTVVASDEIYSQEADVFVPCAFGGVVNDETMKQFKVKAIAGSANNQLLTEDHGRHLADKGILYAPDYIVNSGGLIQVADELYEVNKERVLAKTKHIYDAILEVYQQAELDQITTMEAANRMCEQRMAARGRRNSFFTSSVKPKWDIRN
In the case of B2, the “Amination Activity 40 mM MIBK, kcat” value [7] is reported as “—No Activity—”, the “Deamination Activity 40 mM 1,3-DMBA, kcat” value [8] is reported as “—No Activity—” and the “activity in the amination of phenylpyruvate” value [9] is reported as “greater than 257 U mg^−1”. The “activity in the deamination of L-Phe” value (Deamination of L-Phe) was 39.5 U mg^−1 and the Km [10] was 64.5 mM.
